# Measured values from US20260116970A1 (NMI NATURWISSENSCHAFTLICHES UND MEDIZINISCHES INSTITUT AN …, published 2026).
# Numbering of substitutions follows the chain as printed. Numbers in names are those of the source.
# T1: murine SIRPα on U2OS cells (mouse, UniProt P97797 32-513)
# T1 construct: whole, on cells; also called mouse SIRPα
# T1 sequence (looked up): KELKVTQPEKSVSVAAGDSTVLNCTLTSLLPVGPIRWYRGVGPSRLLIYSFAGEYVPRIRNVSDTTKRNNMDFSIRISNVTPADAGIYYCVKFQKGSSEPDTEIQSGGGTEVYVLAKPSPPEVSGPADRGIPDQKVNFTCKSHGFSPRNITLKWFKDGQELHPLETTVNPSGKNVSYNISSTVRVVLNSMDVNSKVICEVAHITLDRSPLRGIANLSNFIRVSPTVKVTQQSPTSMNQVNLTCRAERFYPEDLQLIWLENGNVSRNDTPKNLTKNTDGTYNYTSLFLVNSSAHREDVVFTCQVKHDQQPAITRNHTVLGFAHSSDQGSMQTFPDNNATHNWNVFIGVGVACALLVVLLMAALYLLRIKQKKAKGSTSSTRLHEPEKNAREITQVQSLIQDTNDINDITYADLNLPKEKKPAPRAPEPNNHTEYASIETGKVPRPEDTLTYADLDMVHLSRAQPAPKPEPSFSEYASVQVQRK
# B1: hSIRPα nanobody S36 (VHH)
# VHH: EVQLVESGGGLVQPGGSLRLSCAASGFTLDYYAIGWFRQVPGKEREGVSCISSDGGGNTYYADSVKGRFTISRDNAKNTVYLQMNSLKPEDSAVYSCAAGPTYYSGSYCRDPHSDYDYWGQGTQVTVSS
# notes: also called Nb S36; hSIRPα-S36 Nb
# B2: hSIRPα nanobody S45 (VHH)
# VHH: HVQLVESGGGLVQPGGSLRLSCAARGFSFRDSAMSWARQAPGKGLEWVGAIYSDGSTVYEKSVKGRFTISRDNAKNTMYLQMHSLKPEDSARYYCAPKGVVADEGDYSGQGTLVTVSS
# notes: also called Nb S45
# B3: hSIRPα nanobody S41 (VHH)
# VHH: HVQLVESGGGLVQPGGSLRLSCAASGETLDYYAIGYVRQAPGKEREGVSCISSRGDNTNYADSVKGRFTISRDNANNTVYLQMNSLKPEDTAVYYCVAIKDSWQNYYCSVGWVEYDVWGQGTQVTVSS
# notes: The single assignment S41 = 26 follows only from the listing order; also called Nb S41
# B4: hSIRPα nanobody S33 (VHH)
# VHH: EVQLVESGGGLVQPGGSLRLSCTTSGFTLDYYSVGWFRQAPGKEREGVSCITASGSSTNYANSVKGRFTISRDKVKNTVYLQMSSLKPEDTAVYYCAAEPCTVVAGILQAPTSDFGSWGQGTQVTVSS
# notes: also called Nb S33
# B5: hSIRPα nanobody S8 (VHH)
# VHH: QVQLVESGGGLVQPGGSLRLSCADSEFRLDEYATGWFRQAPGKEREGVACISRSGSNTKYTDSVKGRFTISRDNAKKTVYLQMNSLKPEDTAVYYCAADLTSHYLSCSSYTDYNSWGQGTQVTVSS
# notes: Purified by IMAC; the tag is not described; also called Nb S8
# B6: hSIRPα nanobody S7 (VHH)
# VHH: HVQLVESGGGLVQVGDSLRLSCAPSGRTFRAYAMAWFRQAPGKEREFVAAIRWIGGTPSYKDSVKGRFTISRDNARNTFYLQMNSLEPQDTGVYYCAAEETQKGSGLGHDGRHYDYWGQGTPVTVSS
# notes: Expressed from pHEN6 in E. coli and purified by IMAC; the tag is not described; also called Nb S7
# B7: hSIRPα nanobody S12 (VHH)
# VHH: QVQLVESGGGLVQPGGSLRLSCLVSGFSSSYYAIGWFRQAPGKEREGVSCITRSGDTTNYADSVKGRFTISRDDARNTVYLQMNSLKTEDTAVYSCALWAWAGSGRLRCTASEYGHWGQGTQVTVSS
# notes: also called Nb S12
# B8: hSIRPα nanobody S44 (VHH)
# VHH: QVQLQESGGGLVQPGGSLRLACAASGFTFSSYDMSWVRQAPGKGLEWVSDIKSGGGRTYYADSVKGRFTISRDNAKNTVYLQMNSLKPEDTAVYYCGSLDNSGAYTGGGQGSQVTVSS
# notes: also called Nb S44
# B9: chelator conjugated hSIRPα-S36K>R Nb (VHH)
# VHH: B1 VHH with K43R, K66R, K77R, K88R
# modifications: p-NCS-benzyl-NODA-GA chelator conjugated to the single remaining primary NH2-group at the N-terminus
# Biological target: T2, hSIRPβ1 on U2OS cells (human, UniProt O00241 30-398)
# T2 construct: whole, on cells; also called SIRP beta
# T2 sequence (O00241 30-398): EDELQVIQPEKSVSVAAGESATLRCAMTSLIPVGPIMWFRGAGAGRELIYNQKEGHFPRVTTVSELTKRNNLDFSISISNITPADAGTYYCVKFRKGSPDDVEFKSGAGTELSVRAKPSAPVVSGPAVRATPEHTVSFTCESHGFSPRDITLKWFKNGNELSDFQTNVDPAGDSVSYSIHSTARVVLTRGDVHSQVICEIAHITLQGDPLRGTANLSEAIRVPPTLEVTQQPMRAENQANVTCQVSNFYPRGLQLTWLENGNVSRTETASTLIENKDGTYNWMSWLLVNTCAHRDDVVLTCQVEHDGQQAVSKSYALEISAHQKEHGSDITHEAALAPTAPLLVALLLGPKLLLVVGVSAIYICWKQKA
# Assay: immunofluorescence on U2OS cells transiently expressing hSIRPβ1
# Procedure: (§1) Stably expressing hSIRPα U2OS cells, U2OS wt or U2OS cells transiently expressing individual hSIRPα domains (D1-3) with SPOT-Tag or different hSIRP family members (hSIRPα-V1, hSIRPα-V2, hSIRPβ1, hSIRPγ, murine SIRPα) were plated at ˜10,000 cells per well of a μClear 96-well plate (Greiner Bio One, cat. #655090) and cultivated overnight at standard conditions. For imaging, medium was replaced by live-cell visualization medium DMEMgfp-2 (Evrogen, cat. #MC102) supplemented with 10% FBS, 2 mM L-glutamine, 2 μg/ml Hoechst33258 (Sigma Aldrich) for nuclear staining. 1-100 nM of unlabeled hSIRPα Nbs in combination with 2.5 μg/ml anti-VHH secondary Cy5 AffiniPure Goat Anti-Alpaca IgG (Jackson Immuno Research) were added and incubated for 1 h at 37° C. […]
# (§2) Moreover, with hSIRPαV1 and hSIRPαV2, two isoforms are expressed either homozygously (v1/v1 or v2/v2) or heterozygously (v1/v2), and the frequency of distribution varies between human subpopulations (Sim et al., “Discovery of high affinity, pan-allelic, and pan-mammalian reactive antibodies against the myeloid checkpoint receptor SIRPα”, MAbs. Taylor & Francis (2019) pp. 1036-1052). To address the question of specificity, hSIRPβ1, hSIRPγ or the hSIRPα polymorphisms hSIRPα-V1 and hSIRPα-V2 were transiently expressed in U2OS cells and their recognition was analyzed by the selected hSIRPα Nbs by immunofluorescence staining. […]
row,Binder,binding result
1,B1,binds

# Biological target: T3, recombinant hSIRPα (extracellular portion) (human, UniProt P78324 31-373, biotinylated with Sulfo-NHS-LC-LC-Biotin where immobilised on streptavidin sensors)
# T3 construct: extracellular domain; The limits aa31-370 are stated for the immunogen; The BLI and HDX text says only 'recombinant hSIRPα' / 'biotinylated hSIRPα'; also called biotinylated hSIRPα
# T3 sequence (P78324 31-373): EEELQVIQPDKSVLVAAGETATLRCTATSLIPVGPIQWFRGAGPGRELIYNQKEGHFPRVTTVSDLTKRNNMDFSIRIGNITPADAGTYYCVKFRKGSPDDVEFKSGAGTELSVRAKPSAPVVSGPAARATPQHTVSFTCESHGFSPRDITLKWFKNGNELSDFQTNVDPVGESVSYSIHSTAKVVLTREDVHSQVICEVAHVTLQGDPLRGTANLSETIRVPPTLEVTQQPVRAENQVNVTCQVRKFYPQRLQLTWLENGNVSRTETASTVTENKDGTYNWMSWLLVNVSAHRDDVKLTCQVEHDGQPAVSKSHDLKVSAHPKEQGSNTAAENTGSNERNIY
# Assay: BLI, biotinylated hSIRPα immobilised on streptavidin biosensors, Nb in solution, global 1:1 fit
# Procedure: (§3) Biotinylated hSIRPα was immobilized on streptavidin biosensors.
# (§4) Analysis of binding kinetics of hSIRPα specific Nbs was performed using the Octet RED96e system (Sartorius) as per the manufacturer's recommendations. In brief, […] of biotinylated hSIRPα diluted in Octet buffer (PBS, 0.1% BSA, 0.02% Tween20) was immobilized on streptavidin coated biosensor tips (SA, Sartorius) for 40 s. In the association step, a dilution series of Nbs ranging from 0.625-320 nM were reacted for 240 s followed by dissociation in Octet buffer for 720 s. Every run was normalized to a reference run applying Octet buffer for association. Data were analyzed using the Octet Data Analysis HT 12.0 software applying the 1:1 ligand-binding model and global fitting. For epitope binning two consecutive association steps with different Nbs were performed. By analyzing the binding behavior of the second Nb, conclusions about shared epitopes were drawn. For the hCD47 competition assay hCD47 was biotinylated and immobilized on SA biosensors followed by the application of pre-mixed solutions containing hSIRPα (20 nM) and Nb (250 nM). As control the hCD47-competing Ab KWAR23 (5 nM) was used.
Binder,Kd [nM],koff [s⁻¹],kon [M⁻¹ s⁻¹]
B2,2.53,0.00164,646000
B3,5.65,0.00383,678000
B4,20,0.00544,267000
B5,0.46,0.0009,2.04e+06
B6,20,0.0123,610000
B7,25.9,0.0127,490000
B8,4.61,0.00915,1.99e+06
B1,0.12,0.0002,1.52e+06

# Biological target: T3, recombinant hSIRPα (extracellular …)
# Assay: BLI, biotinylated hSIRPα immobilised on streptavidin biosensors, S36 at 0.625-5 nM, global 1:1 fit
# Procedure: as §3, §4
row,Binder,Kd [nM]
1,B1,0.12

# Biological target: T4, hSIRPα-V2 on U2OS cells (human, UniProt P78324 31-504)
# T4 construct: whole, on cells
# T4 sequence (P78324 other isoform, or with tags, fused parts or gaps limits assumed): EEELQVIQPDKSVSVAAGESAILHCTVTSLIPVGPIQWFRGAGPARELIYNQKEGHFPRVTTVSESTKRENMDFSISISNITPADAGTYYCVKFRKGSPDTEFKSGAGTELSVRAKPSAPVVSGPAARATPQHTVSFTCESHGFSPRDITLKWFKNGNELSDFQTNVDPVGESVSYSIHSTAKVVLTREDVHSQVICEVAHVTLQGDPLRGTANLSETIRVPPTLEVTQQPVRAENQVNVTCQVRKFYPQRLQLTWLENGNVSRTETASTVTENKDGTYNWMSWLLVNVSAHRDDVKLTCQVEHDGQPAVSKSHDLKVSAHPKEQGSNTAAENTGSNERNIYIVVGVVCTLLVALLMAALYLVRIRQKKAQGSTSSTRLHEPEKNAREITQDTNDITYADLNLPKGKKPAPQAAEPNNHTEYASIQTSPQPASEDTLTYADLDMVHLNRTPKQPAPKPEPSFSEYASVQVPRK
# Assay: live-cell immunofluorescence on U2OS cells transiently expressing hSIRPα-V2, detection with anti-VHH-Cy5
# Procedure: (§5) Data are presented as mean±SD of three technical replicates.
# Stably expressing hSIRPα U2OS cells, U2OS wt or U2OS cells transiently expressing individual hSIRPα domains (D1-3) with SPOT-Tag or different hSIRP family members (hSIRPα-V1, hSIRPα-V2, hSIRPβ1, hSIRPγ, murine SIRPα) were plated at ˜10,000 cells per well of a μClear 96-well plate (Greiner Bio One, cat. #655090) and cultivated overnight at standard conditions. For imaging, medium was replaced by live-cell visualization medium DMEMgfp-2 (Evrogen, cat. #MC102) supplemented with 10% FBS, 2 mM L-glutamine, 2 μg/ml Hoechst33258 (Sigma Aldrich) for nuclear staining. […]
# as §2
row,Binder,binding result
1,B7,no binding (tested: not on the sheet; 1-100 nM per paragraph 140)
2,B8,no binding (tested: not on the sheet; 1-100 nM per paragraph 140)

# Biological target: T1, murine SIRPα on U2OS cells
# Assay: live-cell immunofluorescence on U2OS cells transiently expressing murine SIRPα
# Procedure: (§6) Stably expressing hSIRPα U2OS cells, U2OS wt or U2OS cells transiently expressing individual hSIRPα domains (D1-3) with SPOT-Tag or different hSIRP family members (hSIRPα-V1, hSIRPα-V2, hSIRPβ1, hSIRPγ, murine SIRPα) were plated at ˜10,000 cells per well of a μClear 96-well plate (Greiner Bio One, cat. #655090) and cultivated overnight at standard conditions. For imaging, medium was replaced by live-cell visualization medium DMEMgfp-2 (Evrogen, cat. #MC102) supplemented with 10% FBS, 2 mM L-glutamine, 2 μg/ml Hoechst33258 (Sigma Aldrich) for nuclear staining. 1-100 nM of unlabeled hSIRPα Nbs in combination with 2.5 μg/ml anti-VHH secondary Cy5 AffiniPure Goat Anti-Alpaca IgG (Jackson Immuno Research) were added and incubated for 1 h at 37° C. For control staining hSIRPα Ab PE (SE5A5, BioLegend) and bivSPOT-Nb labeled with AlexaFluor647 (AF647) were used. Images were acquired with a MetaXpress Micro XL system (Molecular Devices) at 20× or 40× magnification.
# (§7) Moreover, with hSIRPαV1 and hSIRPαV2, two isoforms are expressed either homozygously (v1/v1 or v2/v2) or heterozygously (v1/v2), and the frequency of distribution varies between human subpopulations (Sim et al., “Discovery of high affinity, pan-allelic, and pan-mammalian reactive antibodies against the myeloid checkpoint receptor SIRPα”, MAbs. Taylor & Francis (2019) pp. 1036-1052). To address the question of specificity, hSIRPβ1, hSIRPγ or the hSIRPα polymorphisms hSIRPα-V1 and hSIRPα-V2 were transiently expressed in U2OS cells and their recognition was analyzed by the selected hSIRPα Nbs by immunofluorescence staining. In addition, murine SIRPα was included to evaluate potential cross-reactivity between human and mouse SIRPα variants (FIG. 3A; data not shown).
row,Binder,binding result
1,B2,no binding (tested: 1-100 nM)
2,B4,no binding (tested: 1-100 nM)
3,B5,no binding (tested: 1-100 nM)
4,B6,no binding (tested: 1-100 nM)
5,B7,no binding (tested: 1-100 nM)
6,B8,no binding (tested: 1-100 nM)
7,B1,no binding (tested: 1-100 nM)

# Biological target: T3, recombinant hSIRPα (extracellular …)
# Assay: BLI, biotinylated hSIRPα immobilised on streptavidin biosensors, chelator conjugated S36K>R at 1.25-10 nM
# Procedure: Biotinylated hSIRPα was immobilized on streptavidin biosensors. Kinetic measurements were performed by using four concentrations of purified Nbs ranging from 1.25 nM to 10 nM; (E) Stability analysis of chelator conjugated hSIRPα-S36_{K>R} Nb by nanoDSF as fluorescence ratios (350 nm/330 nm) and light intensity loss due to scattering illustrated as first derivative before (To) and after 10 days of accelerated aging at 37° C. (T₁₀); and (F) Phagocytosis of DLD-1 cells by human monocyte-derived macrophages treated with anti-EGFR cetuximab and chelator conjugated hSIRPα-S36_{K>R} Nb. Analysis of phagocytosis of hSIRPα-S36_{K>R} Nb in combination with cetuximab of three different donors (K1, K2, K3). Data are presented as mean±SD of three technical replicates. And
# Analysis of binding kinetics of hSIRPα specific Nbs was performed using the Octet RED96e system (Sartorius) as per the manufacturer's recommendations. In brief, […] of biotinylated hSIRPα diluted in Octet buffer (PBS, 0.1% BSA, 0.02% Tween20) was immobilized on streptavidin coated biosensor tips (SA, Sartorius) for 40 s. In the association step, a dilution series of Nbs ranging from 0.625-320 nM were reacted for 240 s followed by dissociation in Octet buffer for 720 s. […] Data were analyzed using the Octet Data Analysis HT 12.0 software applying the 1:1 ligand-binding model and global fitting. […]
row,Binder,Kd [nM]
1,B9,0.19

# Biological target: T5, hSIRPγ on U2OS cells (human, UniProt Q9P1W8 29-387)
# T5 construct: whole, on cells; also called SIRP gamma
# T5 sequence (Q9P1W8 29-387): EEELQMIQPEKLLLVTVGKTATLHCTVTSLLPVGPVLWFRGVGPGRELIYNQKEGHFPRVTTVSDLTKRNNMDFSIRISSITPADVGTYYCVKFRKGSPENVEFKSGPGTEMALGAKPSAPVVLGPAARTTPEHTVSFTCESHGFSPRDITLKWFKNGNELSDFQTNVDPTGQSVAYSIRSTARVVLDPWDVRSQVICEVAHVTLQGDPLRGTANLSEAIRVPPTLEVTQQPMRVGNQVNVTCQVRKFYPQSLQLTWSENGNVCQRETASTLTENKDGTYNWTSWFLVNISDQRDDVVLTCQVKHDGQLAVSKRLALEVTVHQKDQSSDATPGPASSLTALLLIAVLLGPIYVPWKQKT
# Assay: immunofluorescence on U2OS cells transiently expressing hSIRPγ
# Procedure: as §1, §2
row,Binder,binding result
1,B1,binds

# Biological target: T5, hSIRPγ on U2OS cells
# Assay: live-cell immunofluorescence on U2OS cells transiently expressing hSIRPγ, detection with anti-VHH-Cy5
# Procedure: as §5, §6, §7
row,Binder,binding result
1,B2,no binding (tested: not on the sheet; 1-100 nM per paragraph 140)
2,B4,no binding (tested: not on the sheet; 1-100 nM per paragraph 140)
3,B6,no binding (tested: not on the sheet; 1-100 nM per paragraph 140)
